Holding throughout (test): scFv ELISA
On the technique in general: In an ELISA, binding on a coated surface is turned into a signal by an enzyme label.

The target in experiment [1] is Peptide 1: Biotin-…-[Tyr(PC)]-acid.
In experiment [2] the target is Peptide 5: Biotin-…-[Tyr(PC)]-acid.
For the next experiment, the target named is BSA (UniProt P02769).
The target in experiment [3] is T1, Peptide 4: Biotin-AGGGGSGGGGSGGGGSAAA-Tyr-acid (N-terminal biotin; C-terminal acid).
T1 construct: Control peptide without PC
T1 peptide: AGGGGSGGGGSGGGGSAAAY
The procedure, abridged:
(§1)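 Bound scFv was read as OD450 after HRP–anti-V5 detection, TMB development and HCl stop. PPE with BSA was incubated 1 h at RT on BSA-blocked wells coated overnight at 4° C. with peptide, or on streptavidin wells loaded 1 h with biotinylated PC-peptides at 1 μg/mL.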

The target of experiment [4] is T2, Peptide 8: Biotin-AEAAAKEAAAKEAAAKEAAAKAAA-Tyr-acid (N-terminal biotin; C-terminal acid).
T2 construct: Control peptide without PC
T2 peptide: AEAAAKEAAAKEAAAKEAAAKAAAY
In outline:
as §1

BSA, sequence (P02769 25-607 limits assumed): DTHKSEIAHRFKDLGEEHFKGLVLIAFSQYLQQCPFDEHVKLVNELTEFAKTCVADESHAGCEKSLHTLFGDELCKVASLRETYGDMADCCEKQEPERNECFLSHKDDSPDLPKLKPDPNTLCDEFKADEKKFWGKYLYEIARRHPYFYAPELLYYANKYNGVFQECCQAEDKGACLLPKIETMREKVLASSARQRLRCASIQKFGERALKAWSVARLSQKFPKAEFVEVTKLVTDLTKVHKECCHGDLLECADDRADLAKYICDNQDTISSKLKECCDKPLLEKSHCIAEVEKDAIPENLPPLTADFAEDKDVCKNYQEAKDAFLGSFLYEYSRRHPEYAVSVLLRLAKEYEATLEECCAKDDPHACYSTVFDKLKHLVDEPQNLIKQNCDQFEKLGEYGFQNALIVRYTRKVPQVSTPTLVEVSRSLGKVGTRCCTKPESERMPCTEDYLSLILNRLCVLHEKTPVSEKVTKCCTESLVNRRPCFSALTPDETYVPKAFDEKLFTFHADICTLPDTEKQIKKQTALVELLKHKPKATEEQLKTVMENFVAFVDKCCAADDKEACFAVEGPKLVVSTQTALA

B1: PcOxP_DB03_F05 (scFv, V domains shown)
VH: EVQLLESGGGLVQPGGSLRLSCAASGFTFSDYYMEWVRQAPGKGLEWVAASRNKGNDYTTAYADSVKGRFTISRDNSKNTLYLQMNSLRAEDTAVYYCARDYFGSSYWYFDVWGQGTLVTVSS
VL: DIVMTQSPDSLAVSLGERATINCTASQSVYSSKHNKHYLAWYQQKPGQPPKLLIYGASNPYIGVPDRFSGSGSGTDFTLTISSLQAEDVAVYYCAQFYSYPLTFGGGTKVEIK
notes: scFv in periplasmic extract
B1: the OD450 in experiment [1] is 0.73 OD450; in experiment [2], 1.04 OD450; with BSA, 0.06 OD450; in experiment [3], 0.05 OD450; in experiment [4], 0.04 OD450.

B2: PcOxP_DB04_A04 (scFv, V domains shown)
VH: EVQLLESGGGLVQPGGSLRLSCAASGFTFSDFYMEWVRQAPGKGLEWVAASRNKWNDYTTEYADSVKGRFTISRDNSKNTLYLQMNSLRAEDTAVYYCARDYYGSSYWYFDVWGQGTLVTVSS
VL: DIVMTQSPDSLAVSLGERATINCTASQSVYSSKNKKHYLAWYQQKPGQPPKLLIYGASNRYIGVPDRFSGSGSGTDFTLTISSLQAEDVAVYYCAQFYRYPLTFGGGTKVEIK
notes: scFv in periplasmic extract
With B2, the OD450 worked out at 1.09 OD450 in experiment [1]; 1.9 OD450 in experiment [2]; 0.11 OD450 with BSA; 0.08 OD450 in experiment [3]; 0.08 OD450 in experiment [4].

B3: PcOxP_DB03_G11 (scFv, V domains shown)
VH: EVQLLESGGGLVQPGGSLRLSCAASGFTFSSYYMEWVRQAPGKGLEWVAASRNKANDYTTEYADSVKGRFTISRDNSKNTLYLQMNSLRAEDTAVYYCARDYYGSSYWYFDVWGQGTLVTVSS
VL: DIVMTQSPDSLAVSLGERATINCKSSQSVLSSKHKKNYLAWYQQKPGQPPKLLIYGASNRYIGVPDRFSGSGSGTDFTLTISSLQAEDVAVYYCAQFYSYPLTFGGGTKVEIK
notes: scFv in periplasmic extract
With B3, the OD450 in experiment [1] came out at 0.26 OD450; in experiment [2], 0.72 OD450; with BSA, 0.1 OD450; in experiment [3], 0.05 OD450; in experiment [4] it was 0.05 OD450.

B4: PcOxP_DB03_F11 (scFv, V domains shown)
VH: EVQLLESGGGLVQPGGSLRLSCAASGFTFSDYYMEWVRQAPGKGLEWVAASRNKANSYTTAYADSVKGRFTISRDNSKNTLYLQMNSLRAEDTAVYYCARDYYGSSYWYFDVWGQGTLVTVSS
VL: DIVMTQSPDSLAVSLGERATINCTSSQSLLYSSNKKHYLAWYQQKPGQPPKLLIYGASNRYIGVPDRFSGSGSGTDFTLTISSLQAEDVAVYYCAQFYEYPLTFGGGTKVEIK
notes: scFv in periplasmic extract
Take B4: the OD450 was determined as 1.47 OD450 in experiment [1]; 1.43 OD450 in experiment [2]; 0.12 OD450 with BSA; 0.06 OD450 in experiment [3]; 0.06 OD450 in experiment [4].

B5: PcOxP_DB03_G01 (scFv, V domains shown)
VH: EVQLLESGGGLVQPGGSLRLSCAASGFTFSDGYMEWVRQAPGKGLEWVAASRNKANFYTTEYADSVKGRFTISRDNSKNTLYLQMNSLRAEDTAVYYCARDHYGSSYWYFDVWGQGTLVTVSS
VL: DIVMTQSPDSLAVSLGERATINCTASESLYSSKHKVHYLAWYQQKPGQPPKLLIYGASNRYIGVPDRFSGSGSGTDFTLTISSLQAEDVAVYYCAQFYNYPLTFGGGTKVEIK
notes: scFv in periplasmic extract
As for B5, the OD450 in experiment [1] came to 0.66 OD450; in experiment [2], 1.19 OD450; in the experiment with BSA, 0.09 OD450; in experiment [3], 0.05 OD450; in experiment [4], 0.05 OD450.

B6: PcOxP_DB03_H10 (scFv, V domains shown)
VH: EVQLLESGGGLVQPGGSLRLSCAASGFTFDDFYMEWVRQAPGKGLEWVAASRNEANDYTTEYADSVKGRFTISRDNSKNTLYLQMNSLRAEDTAVYYCARDYYGSSYWYFDVWGQGTLVTVSS
VL: DIVMTQSPDSLAVSLGERATINCTASESLYSSKHKVHYLAWYQQKPGQPPKLLIYGAGNRYIGVPDRFSGSGSGTDFTLTISSLQAEDVAVYYCAQFYHYPLTFGGGTKVEIK
notes: scFv in periplasmic extract
Turning to B6, the OD450 in experiment [1] is 0.24 OD450; in experiment [2], 0.39 OD450; in the experiment with BSA, 0.05 OD450; in experiment [3] it was 0.04 OD450; in experiment [4], 0.07 OD450.

B7: PcOxP_DB04_A11 (scFv, V domains shown)
VH: EVQLLESGGGLVQPGGSLRLSCAASGFTFSDYYMEWVRQAPGKGLEWVAASRNKANTYTTEYADSVKGRFTISRDNSKNTLYLQMNSLRAEDTAVYYCARDYYGSSYWYFDVWGQGTLVTVSS
VL: DIVMTQSPDSLAVSLGERATINCTASESVLSSKHKKNYLAWYQQKPGQPPKLLIYGASTRYIGVPDRFSGSGSGTDFTLTISSLQAEDVAVYYCAQFYSYPLTFGGGTKVEIK
notes: scFv in periplasmic extract
With B7, the OD450 in experiment [1] came to 0.64 OD450; in experiment [2] it was 1.6 OD450; with BSA, 0.1 OD450; in experiment [3], 0.07 OD450; in experiment [4], 0.08 OD450.

B8: PcOxP_DB04_B01 (scFv, V domains shown)
VH: EVQLLESGGGLVQPGGSLRLSCAASGFTQSDFYMEWVRQAPGKGLEWVAASRNKANDYTTEYADSVKGRFTISRDNSKNTLYLQMNSLRAEDTAVYYCARDYYGESYWYFDVWGQGTLVTVSS
VL: DIVMTQSPDSLAVSLGERATINCTASVSLYSSKHKVHYLAWYQQKPGQPPKLLIYGPSNRYIGVPDRFSGSGSGTDFTLTISSLQAEDVAVYYCAQFYSYPLTFGGGTKVEIK
notes: scFv in periplasmic extract
Regarding B8, the OD450 in experiment [1] was determined as 0.45 OD450; in experiment [2], 0.78 OD450; with BSA, 0.06 OD450; in experiment [3], 0.05 OD450; in experiment [4], 0.05 OD450.

B9: PcOxP_DB04_B07 (scFv, V domains shown)
VH: EVQLLESGGGLVQPGGSLRLSCAASGPTFSDFYMEWVRQAPGKGLEWVAASRNKANGYTTEYADSVKGRFTISRDNSKNTLYLQMNSLRAEDTAVYYCARDYYGSSYWYFDVWGQGTLVTVSS
VL: DIVMTQSPDSLAVSLGERATINCTASESLYSSKHKVHYLAWYQQKPGQPPKLLIYGASNRYIGVPDRFSGSGSGTDFTLTISSLQAEDVAVYYCAQFYSYPLTFGGGTKVEIK
notes: scFv in periplasmic extract
With B9, the OD450 in experiment [1] is 0.93 OD450; in experiment [2], 1.33 OD450; in the experiment with BSA, 0.09 OD450; in experiment [3] it was 0.06 OD450; in experiment [4] it was 0.05 OD450.

B10: PcOxP_DB04_A05 (scFv, V domains shown)
VH: EVQLLESGGGLVQPGGSLRLSCAASGFTFSDFYIEWVRQAPGKGLEWVAASRNKANDYTTEYADSVKGRFTISRDNSKNTLYLQMNSLRAEDTAVYYCARDYYGSSYWYFDVWGQGTLVTVSS
VL: DIVMTQSPDSLAVSLGERATINCTASESLYSSKHKVHYLAWYQQKPGQPPKLLIYGASNREIGVPDRFSGSGSGTDFTLTISSLQAEDVAVYYCAQFYSYPLTFGGGTKVEIK
notes: scFv in periplasmic extract
Consider B10, for which the OD450 is 0.72 OD450 in experiment [1]; 1.29 OD450 in experiment [2]; 0.06 OD450 in the experiment with BSA; 0.04 OD450 in experiment [3]; 0.04 OD450 in experiment [4].

B11: PcOxP_DB03_F07 (scFv, V domains shown)
VH: EVQLLESGGGLVQPGGSLRLSCAASGFTQSDFYMEWVRQAPGKGLEWVAASRNKGNSYTTAYADSVKGRFTISRDNSKNTLYLQMNSLRAEDTAVYYCARDYYGSSYWYFDVWGQGTLVTVSS
VL: DIVMTQSPDSLAVSLGERATINCTASESLYSGKHKVHYLAWYQQKPGQPPKLLIYGASNRYIGVPDRFSGSGSGTDFTLTISSLQAEDVAVYYCAQFYSYPLTFGGGTKVEIK
notes: scFv in periplasmic extract
Regarding B11, the OD450 in experiment [1] amounted to 0.53 OD450; in experiment [2], 1.19 OD450; with BSA it was 0.08 OD450; in experiment [3], 0.05 OD450; in experiment [4] it was 0.05 OD450.

B12: PcOxP_DB03_H02 (scFv, V domains shown)
VH: EVQLLESGGGLVQPGGSLRLSCAASGFTESDFYMEWVRQAPGKGLEWVAASRNKYNDYTTEYADSVKGRFTISRDNSKNTLYLQMNSLRAEDTAVYYCARDYYGSSYWYFDVWGQGTLVTVSS
VL: DIVMTQSPDSLAVSLGERATINCTASESLYSSKHKVHYLAWYQQKPGQPPKLLIYGAQNRYIGVPDRFSGSGSGTDFTLTISSLQAEDVAVYYCAQFYSYPLTFGGGTKVEIK
notes: scFv in periplasmic extract
As to B12, the OD450 in experiment [1] worked out at 1.07 OD450; in experiment [2] it was 1.69 OD450; in the experiment with BSA, 0.05 OD450; in experiment [3] it was 0.05 OD450; in experiment [4], 0.04 OD450.

B13: PcOxP_DB03_G12 (scFv, V domains shown)
VH: EVQLLESGGGLVQPGGSLRLSCAASGFTFSDYYMEWVRQAPGKGLEWVAASRNKYNDYTTEYADSVKGRFTISRDNSKNTLYLQMNSLRAEDTAVYYCARDYYGSSYWYFDVWGQGTLVTVSS
VL: DIVMTQSPDSLAVSLGERATINCKSSESVYSSKHKKHYLAWYQQKPGQPPKLLIYGASNRYIGVPDRFSGSGSGTDFTLTISSLQAEDVAVYYCAQFYSYPLTFGGGTKVEIK
notes: scFv in periplasmic extract
For the molecule B13, the OD450 in experiment [1] was found to be 1.57 OD450; in experiment [2] it was 1.91 OD450; with BSA, 0.08 OD450; in experiment [3], 0.06 OD450; in experiment [4], 0.05 OD450.

B14: PcOxP_DB04_B10 (scFv, V domains shown)
VH: EVQLLESGGGLVQPGGSLRLSCAASGFTDSDFYMEWVRQAPGKGLEWVAASRNKANGYTTEYADSVKGRFTISRDNSKNTLYLQMNSLRAEDTAVYYCARDYYGSSYWYFDVWGQGTLVTVSS
VL: DIVMTQSPDSLAVSLGERATINCTASESLYSSKHKVHYLAWYQQKPGQPPKLLIYGASNRPIGVPDRFSGSGSGTDFTLTISSLQAEDVAVYYCGQFYSYPLTFGGGTKVEIK
notes: scFv in periplasmic extract
In the case of B14, the OD450 in experiment [1] came to 1.05 OD450; in experiment [2], 1.56 OD450; with BSA it was 0.06 OD450; in experiment [3], 0.05 OD450; in experiment [4] it was 0.04 OD450.

B15: PcOxP_DB03_G09 (scFv, V domains shown)
VH: EVQLLESGGGLVQPGGSLRLSCAASGFSFSDFYMEWVRQAPGKGLEWVAASRNKWNDYTTEYADSVKGRFTISRDNSKNTLYLQMNSLRAEDTAVYYCARDYYGSSYWYFDVWGQGTLVTVSS
VL: DIVMTQSPDSLAVSLGERATINCTASESLYSSKHKVHYLAWYQQKPGQPPKLLIYGASNRYIGVPDRFSGSGSGTDFTLTISSLQAEDVAVYYCASFYSYPLTFGGGTKVEIK
notes: scFv in periplasmic extract
As to B15, the OD450 in experiment [1] was 0.74 OD450; in experiment [2] it was 1.07 OD450; in the experiment with BSA it was 0.07 OD450; in experiment [3], 0.05 OD450; in experiment [4], 0.05 OD450.
